Source: PMC2777442 (Nucleic Acids Research, 2009)
Read-outs that look alike come from different tables or passages of the source.

Legend:
[1] = biological target: the molecule itself; experiment: AUC
[2] = biological target: T1, TFAM (mature, MTS removed) (Homo sapiens, UniProt Q00059 50-246); experiment: fluorescence anisotropy
T1 sequence: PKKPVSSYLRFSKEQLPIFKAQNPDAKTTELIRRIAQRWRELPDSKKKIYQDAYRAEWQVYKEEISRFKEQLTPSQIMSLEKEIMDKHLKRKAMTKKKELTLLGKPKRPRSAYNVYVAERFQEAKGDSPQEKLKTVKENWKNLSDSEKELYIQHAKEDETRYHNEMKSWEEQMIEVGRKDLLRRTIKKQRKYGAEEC

[3] = biological target: T1, TFAM (mature, MTS removed); experiment: fluorescence anisotropy; remark: listed apart in the source

B1: Human mitochondrial transcription factor A (TFAM), residues 50-246 (natural protein, UniProt Q00059-1 50-246, looked up)
chain: PKKPVSSYLRFSKEQLPIFKAQNPDAKTTELIRRIAQRWRELPDSKKKIYQDAYRAEWQVYKEEISRFKEQLTPSQIMSLEKEIMDKHLKRKAMTKKKELTLLGKPKRPRSAYNVYVAERFQEAKGDSPQEKLKTVKENWKNLSDSEKELYIQHAKEDETRYHNEMKSWEEQMIEVGRKDLLRRTIKKQRKYGAEEC
[1]
  stoichiometry N: 2

B2: Bulged-DNA-S (dsDNA)
DNA 1: CGATATTAAGAGCC
DNA 2: GGCTCAATATCG
[2]
  apparent K (half saturation): 164 ± 17 nM

B3: Normal-DNA-S (dsDNA)
DNA 1: CGATATTGAGCC
DNA 2: GGCTCAATATCG
[3]
  apparent K (half saturation): 413 ± 59 nM
